According to FireProtDB (doi:10.1021/bi000415x):

Conditions: Lithobates pipiens, MES 100 mM, reversible: yes, whole UniProt chain shown; for unfolding free energy / denaturant m value / denaturant midpoint (higher = more stable): 25 °C

B1: Protein P-30 wild type, P22069 (protein)
chain: QDWLTFQKKHITNTRDVDCDNIMSTNLFHCKDKNTFIYSRPEPVKAICKGIIASKNVLTTSEFYLSDCNVTSRPCKYKLKKSTNKFCVTCENQAPVHFVGVGSC
pH 2, Thermal, DSC
  unfolding free energy: 8.84 kcal/mol
  Tm: 69.5 °C
  heat capacity change of unfolding: 1.48 kcal/mol/K
  unfolding enthalpy (calorimetric): 102 kcal/mol
  unfolding enthalpy (van 't Hoff): 105 kcal/mol
pH 2.5, Thermal, DSC
  unfolding free energy: 9.54 kcal/mol
  Tm: 72.6 °C
  heat capacity change of unfolding: 1.31 kcal/mol/K
  unfolding enthalpy (calorimetric): 105 kcal/mol
  unfolding enthalpy (van 't Hoff): 104 kcal/mol
pH 3, Thermal, DSC
  unfolding free energy: 10.8 kcal/mol
  Tm: 76.5 °C
  heat capacity change of unfolding: 1.43 kcal/mol/K
  unfolding enthalpy (calorimetric): 112 kcal/mol
  unfolding enthalpy (van 't Hoff): 110 kcal/mol
pH 3.5, Thermal, DSC
  unfolding free energy: 12.2 kcal/mol
  Tm: 81.6 °C
  heat capacity change of unfolding: 1.36 kcal/mol/K
  unfolding enthalpy (calorimetric): 120 kcal/mol
  unfolding enthalpy (van 't Hoff): 118 kcal/mol
pH 4, Thermal, DSC
  unfolding free energy: 13.5 kcal/mol
  Tm: 86.8 °C
  heat capacity change of unfolding: 1.24 kcal/mol/K
  unfolding enthalpy (calorimetric): 125 kcal/mol
  unfolding enthalpy (van 't Hoff): 127 kcal/mol
pH 5, Thermal, DSC
  unfolding free energy: 14.1 kcal/mol
  Tm: 88.3 °C
  heat capacity change of unfolding: 1.53 kcal/mol/K
  unfolding enthalpy (calorimetric): 129 kcal/mol
  unfolding enthalpy (van 't Hoff): 132 kcal/mol
pH 6, GdnHCl, CD
  denaturant m value: 3.13 kcal/mol/M
  denaturant midpoint (higher = more stable): 4.5 M
  unfolding free energy: 14.1 kcal/mol
pH 6, GdnHCl, Fluorescence
  denaturant m value: 3.08 kcal/mol/M
  denaturant midpoint (higher = more stable): 4.5 M
  unfolding free energy: 13.9 kcal/mol
pH 6, Thermal, DSC
  unfolding free energy: 14.2 kcal/mol
  Tm: 88.7 °C
  heat capacity change of unfolding: 1.31 kcal/mol/K
  unfolding enthalpy (calorimetric): 129 kcal/mol
  unfolding enthalpy (van 't Hoff): 128 kcal/mol
pH 7, Thermal, DSC
  unfolding free energy: 13.7 kcal/mol
  Tm: 87.8 °C
  heat capacity change of unfolding: 1.43 kcal/mol/K
  unfolding enthalpy (calorimetric): 127 kcal/mol
  unfolding enthalpy (van 't Hoff): 123 kcal/mol
pH 8, Thermal, DSC
  unfolding free energy: 13 kcal/mol
  Tm: 85.4 °C
  heat capacity change of unfolding: 1.39 kcal/mol/K
  unfolding enthalpy (calorimetric): 123 kcal/mol
  unfolding enthalpy (van 't Hoff): 127 kcal/mol
